In PMC3968158:

Experiments:
CrkII SH2 domain, 1-124 = CrkII SH2 domain, 1-124 (UniProt Q64010); test: GST pull-down from infected-cell lysate, anti-Tir blot; settings: reference: WT Tir (Δtir EPEC + ptir); sites Y474
CrkL SH2 domain, 9-108 = CrkL SH2 domain, 9-108 (UniProt P46109); test: as above; settings: reference: WT Tir (Δtir EPEC + ptir); sites Y474

With “Tir (translocated intimin receptor) (from UniProt B7UM99) Tir Y474F (Δtir EPEC + ptirY474F)” the “binding against the reference” value (CrkII SH2 domain, 1-124) was “lost” and the “binding against the reference” value (CrkL SH2 domain, 9-108) was “lost”.
